The nature of this series: protease stability score; higher = more stable; yeast display proteolysis, trypsin and chymotrypsin.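 Further: relative to predicted unfolded state with 0 unfolded-like and 1 meaning tenfold more protease.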
For the sequence “DEDHKLAEHFIRLLSEKIETGDEDSYKEMVDPNVRIEIGDKEYHGRDEATRVMKEIRERVKNMRIEIHEIHIQGDKVHVRRIDKVGDKEIEKHLIVLKFDGRWVIERERVH”, the protease stability score came to 1.19.

As for “DEDHKLLEKFYRIWVEMFKTGDEERWKHLADPDARSDINGVDFIGRDTVSKIMESFLRKMGFDHMEIRRFDFQGEKIKSDVVLDFNGRDVRTEIHIIVVDGRIKEERFRVT”, the protease stability score is 0.192. In turn, “DEDHKQSKHAFELFMHLLRTGDEEVLRRMADPNARIVVNGKDDIGREVFLRVLLEFGVDHMQIRDWELDENHIILVSELRIGEKTHTLDVHFKKINGRWIVEVNNLE” yielded a protease stability score of 1.25. The figure for “DEDHKRVREMTDILIELLVTGNEDLLLKLMDPHARERIGDWHSHGRESFVKLLQDLLERIKNVRIEIKDMRIRIYNGVAHSHIDGNNIYNGREIKALWILIIEKINGRWIVHSIELETE” is 1.45; for “DEDHKSAEDMLRLLLETVITGDETLLEKLADPHVRLRVGDKKFIGMEELLRLLDEEKKRLGYTRVDLVLHHREVQGDKLHLETELRVNGRTYQTHWIALKINGRWIIHEVSIR” it is 2.25. The figure for “DEDHKWAKFMFEVFKKVVETGDEEVFKHLADPNVRMEVGDKEFIGREEFRRFLNELRIHHQRDTHIEIRSVGDKIEVLIDGETTIEVGDKTRDHRMRVILFTMKVDGRWLIRSIRFEIH” is 1.56.

For “DEDHQASRLVFELLDRAWKTGDEQILNEMMDPHVKVVFNGVELHGRSALERLMKELRIDTLHLDHTEIYDGRMETEGKVDGEYNGRTLHHITKIRFEKIDGRWVEREVVIK”, the protease stability score was found to be 0.815. Turning to “DEDHQMATIAFHLLIESLLTGDEHTIQEMFDPRVKVNINGVELIGWEALVEHLRRIDHHSIHQWTFRDVRFYDGVLNVLGEVDFEVVFDGRRVSHRVRFHLIIFKIDGKWMTRTVEVK”, the protease stability score came to 2.23. The figure for “DEDHRDAIFILRLFLHATETGDEDSLETLMDPHVKLEINGVRIHGRETTYILMRHWRFRIEHLEIRNFDVFNGRLELIGHRHTTINIDGREERHTVRLEVHIWKINGQWLVQHIHIH” is 2.91; for “DEDHRDAQRLVEHWINVFETGDEEQIEKLLDPNARVIVDGRHVHGRSSVLKFIVDLVREMRVELRLKDLSVVDGRVHVKMEMRIEINGRREETEVDINAEKVDGVWRFKEMFVI” it is 2.47. The figure for “DEDHRDMEEFMRIFIDSLKTGDEESLARMLDPNARTKVNGVDFHGRESALEVLRRLWEEFGVDHMELKSREVEVQGNKVHIHLVVTLIQGDKHIHVRYHINTIKVDGRWLLHEINVEIR” is 1.36. The figure for “DEDHRDVERLFQFVEELLHTGDERVNEELADPNVRIDVNGVERHGREDMVTWLRTIEERYKNATFHTHHIRIQGNKLKVNGRIRQGDWSSDVDILYVKINGRWFIRELKVK” is 1.49; for “DEDHRHARNIFQKWTHDLATGNFHSLNTLFDPHARFEVGDKDIIGRHEWQEHLRHLRLHEVKFTWRRFRIFDGRVEMRGDLRVDGTIDGQHDDETIHTHMIILKVNGRWHIDSMHVH” it is 1.08; for “DEDHRIAHEIFRLLFHLLSTGDEDIFNQMADPHVQSIVGDKEFHGREQLRKAWHEIRVHRSDIHSVEIRVINGRVRNDMRIRYDGEINGKKIDTDIHMEVVIDKYNGRWIIRSVSIEII” it is 2.16. “DEDHRLAVHISKMFEHAESTGDFEISERMADPHTKIDIGDKHYHGMEEWVRFLRELRLSTDHIEIKDSKRYNGRLIIHSRTRITLNVNGKTIDFEIDVTFIFEKVNGRWKLHMYRFD” had a protease stability score of 0.944. For the sequence “DEDHRLWEEMIRILHDALRTGDEDMLEHLMDPDTRLHVGDKNVHGRRDMKYFWEILGVDRVELVIRSFRLIDGKAEIDGESRFNGVTRRVRLIHNKINGRWLTESIHIH”, the protease stability score was 0.745. The figure for “DEDHRWLKELMELFSRALSTGNEKELTELMDPNTRIEVDGVDLIGREDWRHFLERVDHLEAKRVEIKRVKVYDGKIEMDTTEDGVIEINGQNVRTIVHSQVFVLKVDGRWIFRKMSRR” is 1.42. The figure for “DEDKDKVRRWAEDFIRDLTTGDFDSLRREADPNYRIEVNGQDHHGMEFHLWVLDHLGLDNIHTELRDSEVQGDKAHNDIRITYNGKEMTVILIVDKVNGKWFVRKIRIE” is 1.72. “DEDKDLIDLHFEIYQQVVLTGDFRKFRRLFDPNTRWEIGDKEFHGREHLSKLHKDLLEHLGVRVREVELHNFHIQGDKIHLDTRIHVHAENHHMIHITEIISTKIDGRWIITELRLR” gave a protease stability score of 0.826. The figure for “DEDKDLMHEVTRLLHRNLNTGDEHSLERLFDPHYRYHQGEFHSVGREEWYEWLRRYGVDHVHVNLTESISVGDKMKLEGKLELRYDGRRFEHDLHLIALKIDGRWIFTSSHVR” is 0.221. The figure for “DEDKDMKDTMLKDLLHTLETGDEDIWAKLIDPNTQVDIGDKRIHGREKIVEHFRRADVLTIHHVRLRQFHHFDGRAHMNVQFDGTVQINGVEVRFDVTVKLVFLKVNGRWFLHSEERE” is 1.15; for “DEDKDVTKRLFELLRQADETGDEHTMTRLLDPHAQLVVNGRRVHGMEFVWELLLRLRHRYDHSHWRLHDARTQGEYMHLDVRLHLNIDGKRVNIEMHLIILKIDGVWFVHSVEIH” it is 0.45; for “DEDKEAARHFSKILIHLMLTGDEEMIERLLDPDVKVHLVINGVHIERHGREEMIKMHRELLEQIRWKDFILRDIKVVNGVAHVDGELRREQGDKHETVRVRIDIVVINGRIRQVHIEFR” it is 0.404. For “DEDKEAKEESWRIYLHSLLTGDEKEIERLVDPNARLDINGQEHHGRHMVLTHVLRLMVRADHLDDIEIHHMEVIDGQLHSDVILKITINGRDVHIREHYLLRKVNGRWYFKSIEVR”, the protease stability score came to 1.7. Sequence “DEDKEALHEILRLIAEAWNTGDEHTLRRLFDPDVRVEVGDKEFHGREEVDRWFRHLRIEHVETRLHDTRSQGDKLLSDTRLHFVGEVNGVHFNRSTETDLFVHKVDGRWRIESIRVR” had a protease stability score of 1.03. Consider “DEDKEDLDDWFKRWEEALRTGDEKTLLRLMDPDTRLIFENHERHGMEEIFDMLHKHLNRVDHIHDFILRRDDSQGDKVRYDGQEDGIVDGVRDILKVIIYMIKIDGRWLMEELEFH”, for which the protease stability score came to 1.26. In the case of “DEDKEDTDKMIEILIRVARTGDEDSLLHMLDPNVRIVVNGREEHGRDVAHRFLKEIRIHDMEVKRVEIIGNKVKIDGRVDGDFNGVRHKTETEIITEKINGKWVIRSIIFR”, the protease stability score came out at 2.1. The figure for “DEDKEEAMKFLRLWFHSVLTGDEDELTRLLDPNTRIVIDGRTFVGREEMVFVMREMRVHHFHIKDVHLVNGVAHIDTHSDIEFNGRRYRTDTEISVLKVDGKWILKSVKIR” is 2.42. For “DEDKEEAVRIIHEWSHAVFTGDFERELRLADPNVRLIINGRDFHGWHSLRELLNHMRLKTHHTDVKRSRSQGDFVEIDGLFNFTIHFNGRDLNVITDVKVVINKIDGRWKIESVHYE”, the protease stability score was 1.18. The sequence “DEDKEEIMEAIKEFLTNLQTGDEERLFELFDPHVRLKVNGQLYHGREDLVRHLSELGVKHWRLRSVEIQGEKAIMHGLVNVDGRSVRMIIEAEKVNGRWRMRHFESH” returned a protease stability score of 1.84. In turn, “DEDKEESEKFFRDMHRAAETGDWREHLRLMDPHVRLVVGEYQHHGRETFEEILTEWFERVDHQELVIRHVRVYDGVADLDGEIIYHYGDKIIFVRYTIHVRKVDGRWRIKHIRIE” displayed a protease stability score of 0.476. In turn, “DEDKEFMERLARMFWHSILTGDEHRISNLADPNMKLEVDGQRFHGREEMERASKERWERLGVDHIHIEDLRVVGDKVTIHTHVDINGKEWRVDIEVKIINGKIKEIRIERHEL” gave a protease stability score of 1.09. The figure for “DEDKEHIDRSLEELRRSWKTGNEEDVLRLADPHVKMIYNGRHHIGRENFEEALKILLERVDHWEDFRITDRHRQGDKVELDVESEGLVNGVTKRTEMIFIILKIDGRWLLHSLEIR” is 0.724; for “DEDKEIADNFLKQLLRDIQTGDEDSFIERLDPNARLQVGDKHVHGMDEVLRTRREWVKLMGADHIHHVEVNHVHIQGDKVHMDVEVDVEFNGKRRRLKSHLILTKVDGQWIITMEIIK” it is 1.08. The figure for “DEDKEIAEHNLRLLSHSRLTGDEESMHKLMDPNAKIDFNGREIHGMEWIEWLKNQLRLKHVHTEFKDSRIINGRMEVDVNLRLHLSINGKEVDFIIDVELISQKVDGRWIVRSEIYR” is 0.375; for “DEDKEIAEKVAREVFHNFMTGDEDRHLELADPHTRLRVGEWENHGRDQVKRMFERQRRRFDHLERIEIKDVRIYDGVVHLHVEVHGVINGVSTTLEMRVYFVVVNGQLKRSSIHIH” it is 0.373; for “DEDKEIAKKAIEDLLRAWYTGDEEFLKNLVDPNVRSNFDGVDYHGRDEVEKFWHDHLRDLGADHVEFSLHELRIYGDKIILHTKIKFNVNGREIRRETEVISRKIDGRWLIKEIHFR” it is 1.42.

“DEDKEILHKMVEILRHALQTGDEDRLSEMFDPNVRLEINGREEWGREIFRDKHRQLGVDHLHIIIRRVHIQGEYAHIDTEYRIHVNGKTLETRVEVIALKIDGKWLIRQVIFT” had a protease stability score of 1.14. In turn, “DEDKEILKRAFEIYIQTVLTGDEDLFHEMADPHTRLETENETFIGREEVRRWMSEWRVDHIILKDFTAVNGRLVLRGEMDGTINGKRTHVTVTIIIHKVDGRWLLKSMSVE” displayed a protease stability score of 1.36. The figure for “DEDKELAIRMIRLLMHALHTGDEDLLDELLDPNTKVDVDGQDLVGREQFLRDLRHIRIEIKDSHIHDVRVQGDKVRSHSYINGRREYDGVRLETEFRVLFIIRKVNGKWIFKSIHSL” is 1.3; for “DEDKEMIRHAVEILLKTLYTGDWETLERLLDPNARINVDGVDIHGRDVVKHWLDRADHVSIHDSHVERFRFVNGRLTIHIKEHSRFEIGDKTMRVELKRNLFILKIDGRWILESERIV” it is 1.01.

In the case of “DEDKENAEEAIRRLMEMILTGDEDQIRHMIDPHVRVIINGRDHHGWEELLRFWKEMRIHDVKVHDIKIINGRVNSDTKIVTEIGDFRIELEAHFIFHKFDGRWRVDSVDLR”, the protease stability score amounted to 1.18.

“DEDKERADEMLEYILHYILTGDEDSLRELFDPHARLHVDGRDIIGWDKFNRKLIEIRQRTRIQSEHIHIQGDKLHVDGTLRINIHYNGQHLHIDLRSIHITVKINGRWVFKFMEIR” returned a protease stability score of 0.829.

Sequence “DEDKESAEEAFKVWVRDLMTGDEDSLRRLVDPRTLVEVGDKHFHGRDMFVHLEKLQRERADHIRIELHDFDIQGEKIHLDVRVILEQGEKRVFLRTHYLILKVNGRWIVKSLWIQ” had a protease stability score of 0.921. The figure for “DEDKESAERAFRILVHLWETGDEHKLERMHDPNTRYHQGDKDIHGMEKILERLSHIRIKDVKLRDIKYQGEKLEVDGEIEIEVDGRNLLLRTILFFDKVDGRWVIRSIEVR” is 1.52. “DEDKESAKTLVELLVEVLSTGDWKELLHLMDPNTRININGREVHGWHSMHELLRRMIEELRIKRLHLTEVRAQGDKVHVSSKMRVNIDGQDRLTQTHIDVHVFDGVIKTWTMHIE” registered a protease stability score of 1.01. Take “DEDKESLTRFWRMWVELNQTGDEDSLLKMFDPHVKIDINGRDLHGRELFAEEHKKFREEMGIDHFEFEIHRFEVQGDKANLDAKVTIRIGDKFHQLDLHIILHKVNGRWVLHSVKIR”: the protease stability score was 1.22.

These data come from the NTF2 design screens of Basanta et al. (2020).
